Data set [1] is described as follows: Thioflavin-T binding assay. The settings on record: 10 μM Thioflavin-T; for Thioflavin-T binding in the presence of 0.1% SDS: FadA proteins 0.8 mg/ml; for Thioflavin-T binding: without SDS, 10 min. The protocol: (§1) FIG. 2A-2G. Pre-FadA as a key component of amyloid-like FadA. 2A. Single-letter amino acid (aa) sequence of FadA (SEQ ID NO:28). The intact pre-FadA consists of 129 aa, with the first 18-aa (top row) constitute the signal peptide. The remaining 111 aa constitute mFadA. The residues that are replaced in the mutant proteins used in this study are shown in red. 2B. Analysis of detergent resistant recombinant FadA polymers expressed in E. coli. An aliquot of 50 μg detergent-resistant pellets prepared from E. coli BL21(DE3) carrying the cloning vector pET21(b), pYWH417-6 (p_FadAc), or pYWH418 (p_mFadA) were analyzed by SDD-AGE, followed by Western blot analysis. FadA polymers were only detected in E. coli expressing FadAc, but not in mFadA or the vector control. 2C. Reactivity of recombinant FadA and its variants with anti-amyloid fibril antibody OC. A total of 10 μg each of recombinant protein mFadA, FadAc, FadA-L-9A, FadA-L14A, FadA-S71A, and FadA-L76A purified from E. coli was slot-blotted onto nitrocellulose and incubated with polyclonal OC antibody at 1:5,000 dilution. Amyloid-like recombinant Rim4 (Berchowitz et al., 2015) was used as a positive control and histone H1 was used as a negative control. Ponceau stain (pink color) is shown as a loading control. 2D. Thioflavin-T binding assay. FadA proteins at indicated concentrations were incubated with 10 μM Thioflavin-T at room temperature for 10 min. The fluorescent intensity was measured at excitation wavelength of 440 nm and emission wavelength of 500 nm. The experiment was performed in duplicate and repeated three times. *p<0.05, **p<0.01, ***p<0.001 (compared to BSA, t-test). 2E. Thioflavin-T binding assay in the presence of 0.1% SDS. FadA proteins (0.8 mg/ml) were incubated with 10 μM Thioflavin-T at room temperature for 10 min. The fluorescent intensity was measured at excitation wavelength of 440 nm and emission wavelength of 500 nm. The experiment was performed in duplicate and repeated three times. *p<0.05, **p<0.01 (compared to BSA, t-test). 2F. Western blot analysis of Fn12230 (Fn), fadA-deletion mutant US1 (ΔfadA) and spontaneous mutant lam following SDS-PAGE. A total of 400 μl of each culture grown to OD600 of 1.0 was pelleted and loaded onto 12% SDS-PAGE. FadA protein was detected using anti-FadA mAb 7H7 at 1:4,000 dilution. […] 2G. Analysis of amyloid-like FadA produced by Fn 23726 and its Δfap2 mutant. An aliquot of 50 μg detergent-resistant pellets was loaded onto each lane, followed by SDD-AGE and Western blot analysis as described above.
Thioflavin-T binding assay. Thioflavin-T assay was conducted as previously described (Tukel et al., 2009). A mixture of 50 μl of FadA proteins and 50 μl of 10 μM Thioflavin-T was added to a black 96-well plate and incubated for 10 min at room temperature. After incubation, the fluorescence intensity was determined using a SpectraMax M5 microplate reader at excitation wavelength of 440 nm and emission wavelength of 500 nm. For SDS stability test, the FadA proteins were pre-incubated in 0.1% SDS for 30 min at room temperature, followed by Thioflavin-T binding assay as described above.

Data set [2] is described as follows: Circular dichroism (CD) test. Format: physicochemical. Conditions: wavelength range 190-250 nm; 0.2 mg/ml protein. The protocol:
Circular dichroism (CD) test. CD was used to evaluate the secondary structure of FadA and its mutants. One hundred microliter of 0.2 mg/ml purified FadA was analyzed by Chirascan V100 Spectrometer using a 1 mm path-length fused quartz cell. The measurements are an average of three scans for each sample, captured at a scan rate of 1 sec., bandwidth and step size of 1 nm, over a wavelength range of 190-250 nm. CD spectra were recorded and analyzed with BestSel server (see www at bestsel.elte.hu/).
Background: Circular dichroism is widely used to follow secondary structure.

The nature of data set [3]: SDD-AGE and Western blot of detergent-resistant polymers. Format: physicochemical. The settings on record: expressed in E. coli; SDD-AGE, Western blot with mAb 7H7. The protocol: FIG. 2A-2G. Pre-FadA as a key component of amyloid-like FadA. 2A. Single-letter amino acid (aa) sequence of FadA (SEQ ID NO:28). The intact pre-FadA consists of 129 aa, with the first 18-aa (top row) constitute the signal peptide. The remaining 111 aa constitute mFadA. The residues that are replaced in the mutant proteins used in this study are shown in red. 2B. Analysis of detergent resistant recombinant FadA polymers expressed in E. coli. An aliquot of 50 μg detergent-resistant pellets prepared from E. coli BL21(DE3) carrying the cloning vector pET21(b), pYWH417-6 (p_FadAc), or pYWH418 (p_mFadA) were analyzed by SDD-AGE, followed by Western blot analysis. FadA polymers were only detected in E. coli expressing FadAc, but not in mFadA or the vector control. 2C. Reactivity of recombinant FadA and its variants with anti-amyloid fibril antibody OC. A total of 10 μg each of recombinant protein mFadA, FadAc, FadA-L-9A, FadA-L14A, FadA-S71A, and FadA-L76A purified from E. coli was slot-blotted onto nitrocellulose and incubated with polyclonal OC antibody at 1:5,000 dilution. […] The fluorescent intensity was measured at excitation wavelength of 440 nm and emission wavelength of 500 nm. […] The fluorescent intensity was measured at excitation wavelength of 440 nm and emission wavelength of 500 nm. […] FadA protein was detected using anti-FadA mAb 7H7 at 1:4,000 dilution. […]

In data set [4] the test system is Fn binding to human CRC cells DLD1. The data set is described as follows: Cell culture attachment assay, DLD1. Format: cell-based. Conditions: 50 μg FadAc pre-incubated with DLD1 for 45 min.
In data set [5] the test system is anti-amyloid oligomer antibody A11. Nature of the data set: Slot blot assay with anti-amyloid oligomer antibody A11. Format: binding. The settings on record: 10 μg recombinant protein; A11 at 1:5,000 dilution. How it is done:
FIG. 8A-8C. 8A. SDS-PAGE analysis of recombinant FadAc and its variants. The proteins were purified as previously described (Xu et al., 2007). Approximately 2.5 μg of each purified protein were loaded onto 12% SDS-PAGE. Following electrophoresis, the gel was stained with Coomassie Blue G-250. 8B. Reactivities of recombinant FadA and its variants with anti-amyloid oligomer antibody A11. A total of 10 μg each of recombinant protein mFadA, FadAc, FadA-L-9A, FadA-L14A, FadA-S71A, and FadA-L76A purified from E. coli was slot-blotted onto nitrocellulose and incubated with polyclonal anti-amyloid oligomer antibody A11 at 1:5,000 dilution. Amyloid-like recombinant Rim4 (Berchowitz et al., 2015) was used as a positive control and histone H1 was used as a negative control. Ponceau stain (pink color) is shown as a loading control. 8C. Western blot analysis of wild-type Fn 23726 (1) and mutants Δfap2 (2) using anti-FadA mAb 7H7. The bottom panel is Coomassie blue stain for loading control.
(§2) Slot blot assay. Ten micrograms each of purified recombinant protein was slot-blotted onto nitrocellulose membrane (BioRad) and assayed for reactivity with polyclonal anti-amyloid fibril antibodies OC (α-amyloid fibril OC, Sigma-Aldrich CAT #AB2286) at 1:5,000 dilution and goat-anti-rabbit IgG (GE Healthcare) at 1:10,000 dilution, or polyclonal anti-amyloid oligomer antibody A11 (α-oligomer A11 at 1:5,000 dilution, ThermoFisher Scientific CAT #AHB0052) and goat-anti-rabbit IgG at 1:10,000 dilution, followed by detection with ECL Prime (GE Healthcare). Amyloid-like recombinant Rim4 was used as a positive control (Berchowitz et al., 2015) and histone H1 was used as a negative control. Loading was assessed by Ponceau stain (Sigma CAT #P7170).

The subject of a further data set is HCT116 xenograft tumors. The settings on record: shown previously (Rubinstein et al., 2013); cited from earlier work.
In data set [6] the test system is anti-amyloid fibril antibody OC. Nature of the data set: Slot blot assay with anti-amyloid fibril antibody OC. Format: binding. Conditions: 10 μg recombinant protein; OC at 1:5,000 dilution. How it is done:
as §1, §2

Where a chain is given by its changes, count along the chain named. Names and notes keep the numbering of the source.

B1: FadAc: recombinant active heterogeneous complex of pre-FadA and mFadA (protein)
chain 1: MKKFLLLAVLAVSASAFAATDAASLVGELQALDAEYQNLANQEEARFNEERAQADAARQALAQNEQVYNELSQRAQRLQAEANTRFYKSQYQELASKYEDALKKLEAEMEQQKAVISDFEKIQALRAGN
chain 2: ATDAASLVGELQALDAEYQNLANQEEARFNEERAQADAARQALAQNEQVYNELSQRAQRLQAEANTRFYKSQYQELASKYEDALKKLEAEMEQQKAVISDFEKIQALRAGN
For B1, in data set [1], the “Thioflavin-T binding in the presence of 0.1% SDS” value was “bound Thioflavin-T”. Moreover, in data set [2], the “α helix (%)” value stood at 47.2% and the “β strand (%)” value stood at 9.6%. For the same molecule, the “formation of detergent-resistant polymers” value in data set [3] is listed as “formed detergent-resistant polymers”. Moreover, the “inhibition of Fn binding to DLD1” value in data set [4] is listed as “effectively inhibited”. In addition, the “reactivity with anti-amyloid oligomer antibody A11” value in data set [5] was “reacted”. Besides, in the data set with HCT116 xenograft tumors, the “stimulation of xenograft tumor growth” value is “stimulated xenograft tumor growth”. The “reactivity with anti-amyloid fibril antibody OC” value in data set [6] is given as “reacted”.

B2: S71A (protein)
chain 1: B1 chain 1
chain 2: B1 chain 2 with S71A
As for B2, the “Thioflavin-T binding in the presence of 0.1% SDS” value in data set [1] is on record as “bound Thioflavin-T”. For the same molecule, in data set [2], the “α helix (%)” value is recorded as 49.1% and the “β strand (%)” value is 8%. For the same molecule, the “reactivity with anti-amyloid oligomer antibody A11” value in data set [5] is “reacted”. Further, in data set [6], the “reactivity with anti-amyloid fibril antibody OC” value is on record as “reacted”.

B3: L14A (protein)
chain: B1 chain 2 with L14A
With B3, the Thioflavin-T binding entry in data set [1] is listed as “did not bind Thioflavin-T”. Besides, in data set [2], the “α helix (%)” value came out at 44.2% and the “β strand (%)” value was determined as 11.6%. Besides, in data set [5], the “reactivity with anti-amyloid oligomer antibody A11” value is “did not react”. For the same molecule, the “reactivity with anti-amyloid fibril antibody OC” value in data set [6] was “did not react”.

B4: mFadA: cleaved mature form of FadA, 111 aa residues without the signal peptide (protein)
chain: B1 chain 2
B4: in data set [1], the “Thioflavin-T binding in the presence of 0.1% SDS” value is reported as “did not bind Thioflavin-T” and the Thioflavin-T binding entry is listed as “bound more Thioflavin-T than FadAc”. For the same molecule, in data set [2], the “α helix (%)” value is 27.9% and the “β strand (%)” value came to 18.8%. In data set [3], the “formation of detergent-resistant polymers” value is listed as “did not form polymers”. Besides, the “reactivity with anti-amyloid oligomer antibody A11” value in data set [5] was “reacted weakly”. The “stimulation of xenograft tumor growth” value with HCT116 xenograft tumors is recorded as “not”. In data set [6], the “reactivity with anti-amyloid fibril antibody OC” value was “not with the anti-fibril OC”.

B5: L76A (protein)
chain: B1 chain 2 with L76A
Consider B5, for which the “reactivity with anti-amyloid oligomer antibody A11” value in data set [5] was “did not react”. Moreover, the “reactivity with anti-amyloid fibril antibody OC” value in data set [6] is “did not react”.

The values are drawn from patent publication US12030929B2, “Fusobacterium nucleatum amyloid-like FadA for diagnosis and treatment of Fn-mediated pathogenesis” (The Trustees of Columbia University in the City of New York, priority 2021, dated 2024).
